Assay results taken from paper PMC4222117.

Target: Aβ extracted from AD brain (human (endogenous in AD brain))
Assay: immunoprecipitation and SDS-PAGE Western blot

stoichiometry N: 2
Substance: Aβ extracted from AD brain (peptide)
